From the DeepSol protein solubility set

Test: soluble on expression in E. coli; label from the status in PepcDB or PDB records

Row | Sequence | soluble on expression in E. coli
1 | GPGSMSRQQQAQELQKQWETDPRWKGIKRAFTAEDVVRLRGSIQQEHTLAKRGAEKLWTLINNEPFVNALGALTGNQAMQQVKAGLKAIYLSGWQVAGDANVAGEMYPDQSLYPANSVPLVVKRINNTLTRADQIQWSEGKNPGDEGYVDFFAPIVADAEAGFGGVLNAFELMKAMIEAGASGVHFEDQLASVKKCGHMGGKVLVPTREAVAKLTAARLAADVMGTPTVLVARTDAEAADLITSDIDDNDKPYLTGERTVEGFFRTKPGLEQAISRGLAYAPYADLIWCETGKPDLEYAKKFAEAIHKQFPGKLLSYNCSPSFNWKKNLDDATIAKFQKELGAMGYKFQFITLAGFHALNYSMFNLAHGYARTQMSAFVELQQAEFAAADKGFTAVKHQREVGTGYFDAVTQTVEREASTTALHGSTEDEQFFDGQKVA | soluble
2 | MGSDKIHHHHHHMTEKKIILADEPLKSPDQDKLGFAPFAKRIATVIQSVQLRESIVFAVYGKWGSGKTTFINFLTSYLNHDSSITIVKFDPWWFSEKEDLIRQFLSNLQFTLNKSTKFKDIAKMLKPYIETLGEIPKFGWIFKIASRFKKNLQKSVIETKEEIINRLKEKDGKIVVIIDDIDRLTAKEIRELFTIVKAIADFPNTVYILAFDKDIVIRALEKVQEGKGEDYLEKIIQIPIELPLADKTSIRKMLFEELDAVLSGTSNELFDSTYWRNVYWDGIDPFINTVRNVKRLINTIRVTYPSVKNEVNAVDFIAIETLRVFCPEVYSIVKDYPDMFCGYSGEIYDVSRRHIEFLKQFHQNWLSRLNFPDDLKENIKNLLKRLFPKFESVFENIYYGPDWEREWRKKYRICCKEIFPRFFIFSVPSDDLSKHEMDFILSSLHNKEALIEHLKRLATQIRSDGSTRLSIFLERMEDYASEISQDYIPVVIEVFFTIGDKLIIPEDENKSFLIPWGNDIRMERIIWRLLRRYDNNSKRFEVLKNAFKNGQALFMMVNVLILFWQQHRKYRDAKESDAILLDENHLKTLQEIVLDKIRKAVEEGSLLNTPSLPVILHQWREWANEDEVKEWVKEIVFSDEKLPIFLTKFLQKTVSWTETSRATNIYWQIDLNWLKDFINLDFLEKRCNEILSNDSIIGTLEDKQKLAIRLFLNEKTKSLDSSTEEQGKDG | not soluble
3 | MGSDKIHHHHHHMTSAANLVRITQPAISRLIRDLEEEIGISLFERTGNRLRPTREAGILFKEVSRHFNGIQHIDKVAAELKKSHMGSLRVACYTAPALSFMSGVIQTFIADRPDVSVYLDTVPSQTVLELVSLQHYDLGISILAGDYPGLTTEPVPSFRAVCLLPPGHRLEDKETVHATDLEGESLICLSPVSLLRMQTDAALDSCGVHCNRRIESSLALNLCDLVSRGMGVGIVDPFTADYYSANPVIQRSFDPVVPYHFAIVLPTDSPPPRLVSEFRAALLDALKALPYETI | not soluble
4 | MKKVRKLYEGKAKIVYETDEKDKLILEFKDVATAFDGVKKEEIKGKGSLNNEISSLIFEILEDHGIKTHYIKKLSDREMLVWRAERFPVEVVVRNYAAGSFVKRYGVKEGTKLEQPLVEFFMKSDELHDPMVCINHIKVLKLAPAELVPEMEKIALKVNEILKKIFEEKGILLVDFKLEFGRLPSGELAIVDEISPDSMRLWDKSTGENWIKTDSV | soluble
5 | GSHMDDDLVDAEGNLVENGGTYYLLPHIWAHGGGIETAKTGNEPCPLTVVRSPNEVSKGEPIRISSQYRSLFIPRGSLVALGFANPPSCAASPWWTVVDSPQGPAVKLSQQKLPEKDILVFKFEKVSHSNIHVYKLLYCQHDEEDVKCDQYIGIHRDRNGNRRLVVTEENPLELVLLKAKSETASSH | soluble
6 | MSDELSVKRHKSDPDESIEEIMPEIRPPLTRTHKIVRDESGKHNLLLILTGSIAVMKAPELISELYEKIGRDRILIKVVTTENAMKLCHIQKLEFDEIVYEDRDEWSMWRERGDKVLHIELRKWADSALIAPLDANTMAKIANGLCDNLVTSIIRAWDLSKPCYFAPAMNTHMWENPLTMQHRTVLKSQLKFKEICPIQKELICGDVGTGAMASIGTIVSLVAALVRDQQAVRIQCG | not soluble
7 | MLQKTKGIVLHTLKYNDTSIIVDMYTELSGRTSFLVPVPRSRKAAVKSVLFQPLSFIEFEADFRPNATLYRVKEAKSFYPFTSIPYDPYKSSMALFLAEFLYRAVREEAENRPLFAYLQHSVIWLDECREGFANFHLVFLMRLSRFLGLYPNLEDYHTGDYFDLLNACFTSTRPQLHSSYINPEEAGRLRQLMRMNYETMHLFGMSRAERTRCLTIMNDYYRLHLPDFPALKSLDVLKELFD | not soluble
8 | MSGKEPLNPNPVIASGRKCRLKDSSDGIFRKGRDALEKTAFQAGILFARQRGGIGRAGKRTGGGSFMPSESPPLRLFAKKVGKGTYNPVQSSINI | not soluble
9 | MPEISPYVTKTEVQLMMAGLDYRKTNGSRDTAPKGQLPWIVDAAQAIADSTFIRVHIERKYDVDLDFGLTGRERAQAWAIERMIENQLGWVSTYFRFLEPANFERGPARAFDQAPGHLRDELRQGLREAVAANIRAVGVGRHLREEVAWLGGLSLRALDELLEDKAYLMRDAYPVGVDATAFAMLAAIMTPFFDSPLRRQAERYPRLVAYVGRMMERFYPAHPWGLRQAALEHHHHHH | not soluble
10 | MFENESLSFEEQTIIQAAERYVQQELANEASGHDWWHIYRVTQLAKTIAEKEQANLFLCILTALLHDIGDEKFNESEEAGLLKVQQWLEANNVSTEQTNHILSIIANMSFKGGNTGKTVTTLEGKVVQDADRLDAIGAIGIARVMAYSGNKGRLIHDPHKQPREQLTQEEYRNGEDTAIMHFYEKLLKLKEQMNTNYGRLLAEKRHQFMELYLEEFYQEWDGHR | not soluble
11 | MPYADNGVKIYYEVEDGGEPAIVFVHGWTANMNFWREQREYFKGKHRMLFIDNRGHGKSDKPFNRSFYEFDNFVSDLHAAVKDASFDRFVLVGHSFGTMISMRYCVEHPGRVEALVLIGGGARIQSLHRYGYPIGRLFATLAYGISARIIANMAFGRKAGELRDWGLKEALENTPKHAALNTLWTLTTVDLRDIAREIEKPTLIVVGKEDALLPVSKSEELSRLIKNSKMVIVPDAGHCVMLEQPEIVNRVLEEFIHTFSAMLIRA | not soluble
12 | MAGHSKWANIKHRKAAQDAQRGKIFTKLIRELVTAAKIGGGDVSANPRLRAAVDKALSNNMTRDTINRAIDRGVGGGDDTNMETKIYEGYGPGGTAVMVECLSDNANRTISQVRPSFTKCGGNLGTEGSVGYLFSKKGLILIAEADEDALTEAAIEAGADDIQPQDDGSFEIYTAWEDLGSVRDGIEAAGFKVQEAEVTMIPSTTVDLDIETAPKLLRLIDMLEDCDDVQNVYHNGEICDEVASQL | not soluble
13 | MGHHHHHHMPVVDSDGDAVQLNLGGNYPLYTIQSAAIGFRGGLSTLRKDACKSYVYEAPETDRGLPVGFSASATSQPVMQLGSRYKFSFSMPVPLICDTAWSIGKSETNGGISFQPITAGDYFYLNNFSWFEARSTEETGVYKLAACSCEFCKIACPEVGSFNVNGRTLLGIGGEHFTVQFQKFD | soluble
14 | MRVVLAPMEGVLDYRMRDLLTQVGSYDLCVTEFIRVVDQVLPDRVFHRYCPELIDADVYGSCTKAGTPVRVQLLGQYPEYMAENAAKVIELGSSGIDLNFGCPSKTVNKSRGGSILLKDPENLYQIIKAVKEAVPSDTIVSAKIRLGYEDKTLAIENGQAVEAAGANELTIHARTKLEGYKPPAHWHWIAKVKNAINIPVIANGEIWNLEDAIKCREISGCTDLMVGRGALTIPNLGQVIKQESDNMPWLEVRAILSAYTEFETHGDKSKYYCNRIKQWLKYLKSHYKEADVLFDEIRRLKTAEGIRAAL | not soluble
15 | MNEQWLEHLPLKDIKEISPVSGGDVNEAYRVETDTDTFFLLVQRGRKESFYAAEIAGLNEFERAGITAPRVIASGEVNGDAYLVMTYLEEGASGSQRQLGQLVAQLHSQQQEEGKFGFSLPYEGGDISFDNHWQDDWCTIFVDKRLDHLKDELLNRGLWDANDIKVYDKVRRQIVAELEKHQSKPSLLHGDLWGGNYMFLKDGRPALFDPAPLYGDREFDIGITTVFGGFTSEFYDAYNKHYPLAKGASYRLEFYRLYLLMVHLLKFGEMYRDSVAHSMNKILQDTTSLEHHHHHH | not soluble
16 | MTQMKIFVIGAHGQIGKKIVSKLVAQGDQVYAGIRQPEQAEAFEDAGAQPVQFNLMAQPEDLALAFNGMDAIVFAAGSGGQTGYDMTLMIDLDGAVKSMVAAKIAGVKRYVIISAEFTPDRSRWPRALQPYYVAKYYADEWLKNRTQLDYTILQPGTLINDAGTGKVTVNPDVGGEITRDDVATFTVQTLHTPATVGKTIALINGDTPISKAVQQA | not soluble
17 | MAHHHHHHMTACSARAQAAAAVHTVVVSLTARREWWKHTCALDSASVFIVHTSDCPPPNRYTARAYPLRCEARLSLHVYANLPAPVSRQCITFLSFRGIYLSPLFCCPPLRHSFHAPAHQFQPPPPSSPFPTLPTRATQHHHHCSHTRVHQICPAVPSLSALSNILTVSAMSAKTAAAPSERSFVDRFVRSHAGAATAAGILEIGFFHPFDTIAKRLMANKGSIMRGSTGETAANLNIIVFKKHADAGFLRKVVYLYPGSLYATVYKVFQRVYKFAGQPLVRDFLSSNYRDGFKRYFGEAHKVMEDATAGCLIGLGEVFLLPLDRLKVLSQTNEAAMRSGLLPLLRQEGFRGMYAGTVVTMCRNAPGSFCLFGGTAFTKGYIFGLSDYRHATLFQNMCASTVGACVAIAISNPMDVVKTRVQQQTAAERCSGMAMATAMLKEEGMLSFFKGLTPKIIASAPKLIFAYTMTEFFFKVMNDSKKH | not soluble
18 | MNNLKLDIVEQDDKAIVRVQGDIDAYNSSELKEQLRNFISTTSKKKIVLDLSSVSYMDSAGLGTLVVILKDAKINGKEFILSSLKESISRILKLTHLDKIFKITDTVEEA | soluble
19 | MPGITFKEDANERGRQIEHWPLLKNGSIFVIADDGTRYFQEDAKHRHGHVYTHGSWLIPMNNQHPYLIFDQTQYDAFKQEESQAGQLPYPKFMTKLVSAPTIAQLAAKLGVPANNLQQTVTDFNHYTEVGRDFEFGRDPQTMRQLDDGPYYAIAALEHHHHHH | soluble
20 | MSRVSTAPSGKPTAAHALLSRLRDHGVGKVFGVVGREAASILFDEVEGIDFVLTRHEFTAGVAADVLARITGRPQACWATLGPGMTNLSTGIATSVLDRSPVIALAAQSESHDIFPNDTHQCLDSVAIVAPMSKYAVELQRPHEITDLVDSAVNAAMTEPVGPSFISLPVDLLGSSEGIDTTVPNPPANTPAKPVGVVADGWQKAADQAAALLAEAKHPVLVVGAAAIRSGAVPAIRALAERLNIPVITTYIAKGVLPVGHELNYGAVTGYMDGILNFPALQTMFAPVDLVLTVGYDYAEDLRPSMWQKGIEKKTVRISPTVNPIPRVYRPDVDVVTDVLAFVEHFETATASFGAKQRHDIEPLRARIAEFLADPETYEDGMRVHQVIDSMNTVMEEAAEPGEGTIVSDIGFFRHYGVLFARADQPFGFLTSAGCSSFGYGIPAAIGAQMARPDQPTFLIAGDGGFHSNSSDLETIARLNLPIVTVVVNNDTNGLIELYQNIGHHRSHDPAVKFGGVDFVALAEANGVDATRATNREELLAALRKGAELGRPFLIEVPVNYDFQPGGFGALSI | soluble
21 | GPGSMQQPTAQEEQYVNVPVPLTGEEKGWQEVAPNRYIRYEQFGGSDAEMNFIVNLFTAELTEPYSSFTYQYFVFGWPDLCITAFGVESETKPDNSVVGEKVGAVVSRVTRKGAGMPLRGYVAMFAVVPKFRGYRLGSRLVSLTVELMRAKGCDEVYLETPTSNVRALGLYLNLGFAKTKYLPRYYLDHSDAVRLKLWLKDAIPKSVPETASTAGVEKA | soluble
22 | MTLAEENLRLFEKKFAILQEISNALVVTDNISAIANLMLDLAVNYTRAEKGSLLLLNERDELFILAGRGIDLQLMRTYRARLGEGIAGIVAKGRVPILVKDIDQDSRFQGMTRDRYKTPSFISCPIVSKDRLLGLLNINDKADGTPFLDDEFSLIKIIANQAAIALENAMLVNQLR | not soluble
